Measurements: publication PMC4014319, “Structure of catabolite activator protein with cobalt(II) and sulfate” (Acta Crystallographica. Section F, Structural Biology …, 2014)

Target: the molecule itself
Assay: crystal structure; hanging-drop vapor diffusion, 20°C, 0.01 M CoCl2.6H2O, 0.1 M MES pH 6.5, 2.5 M ammonium sulfate; sample 0.1 mM CAP dimer, 0.05 mM DNA duplex, 0.4 mM cyclic AMP (no DNA in the crystal); space group P2(1)2(1)2, one dimer in the asymmetric unit, 1.97 Å

B1: catabolite activator protein (CAP) (natural protein, Escherichia coli, UniProt P0ACJ8 1-210, looked up)
chain: MVLGKPQTDPTLEWFLSHCHIHKYPSKSTLIHQGEKAETLYYIVKGSVAVLIKDEEGKEMILSYLNQGDFIGELGLFEEGQERSAWVRAKTACEVAEISYKKFRQLIQVNPDILMRLSAQMARRLQVTSEKVGNLAFLDVTGRIAQTLLNLAKQPDAMTHPDGMQIKITRQEIGQIVGCSRETVGRILKMLEDQNLISAHGKTIVVYGTR
notes: crystallised with cobalt(II) and sulfate; also called cAMP–CAP
**Q.** Does B1 bind?
**A.** binds
